Assay results from paper PMC10039049.

Molecular target: extracellular leucine-rich repeat (LRR) domain of OsER1 (OsER1^LRR) (rice (Oryza sativa)) (UniProt Q69SP5)
Experiment: ITC; about 0.3 mM OsEPFL peptide injected (24 x 1.5 uL) into 0.03 mM OsER1^LRR in the cell; ITC200, 25 °C, 10 mM Bis-Tris pH 6.0, 100 mM NaCl

Chain of UniProt Q69SP5 (Q69SP5 25-577): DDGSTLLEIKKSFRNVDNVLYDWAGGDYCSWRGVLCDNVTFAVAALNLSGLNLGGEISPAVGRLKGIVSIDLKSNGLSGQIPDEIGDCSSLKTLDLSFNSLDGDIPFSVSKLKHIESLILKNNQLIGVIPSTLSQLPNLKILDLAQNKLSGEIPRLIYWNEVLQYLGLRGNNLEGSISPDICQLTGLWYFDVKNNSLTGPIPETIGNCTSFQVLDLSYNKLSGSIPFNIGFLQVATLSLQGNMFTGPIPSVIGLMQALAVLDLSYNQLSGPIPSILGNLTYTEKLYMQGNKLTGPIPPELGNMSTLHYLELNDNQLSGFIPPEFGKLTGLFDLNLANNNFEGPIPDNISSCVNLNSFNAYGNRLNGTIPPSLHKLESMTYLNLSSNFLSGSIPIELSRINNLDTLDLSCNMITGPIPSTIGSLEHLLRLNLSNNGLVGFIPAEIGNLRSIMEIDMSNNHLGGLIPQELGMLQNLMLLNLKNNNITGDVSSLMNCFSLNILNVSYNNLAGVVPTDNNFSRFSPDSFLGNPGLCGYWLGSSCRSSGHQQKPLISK

| Kd | Substance |
| --- | --- |
| 56.8 µM | predicted mature small peptide OsEPFL9 |
| 1.35 µM | predicted mature small peptide OsEPFL6 |
| 1.02 µM | predicted mature small peptide OsEPFL7 |
| 18.7 µM | predicted mature small peptide OsEPFL8 |
